In paper doi:10.1101/2025.11.06.687086 (2025) one finds Kd data, which are given here for 2 molecules.

The assay has as its target A/Texas/37/2024 (H5N1) HA (influenza A virus A/Texas/37/2024 (H5N1)). Nature of the assay: BLI. Background: Biolayer interferometry detects binding as a change in optical thickness at a sensor tip.

B1: HB31 VH R55G germline revertant Fab (Fab, V domains shown)
VH: EVQLLESGGGLVQPGGSLRLSCTVSGFTSSNYDMSWVRQAPGKGLEWVSGISGTGGDTYYADSVKGRFTISRDNSKNTLSLQMNSLRADDTAVYFCARDRPVLRYFDWQPYGLDVWGKGTTVTVSS
VL: QSALTQPPSASGSPGQSVTISCTGTSSDVGGYNYVSWYQQYPSKAPKLMIYEVSKRPSGVPDRFSGSKSGNTASLTVSGLQAEDEADYYCNSYAGSNLYVFGTGTKVTVL
As to B1, the dissociation constant (Kd) (commonly the constant that tells how readily two partners part at equilibrium) is 10.5 nM. This lies in the double-digit nanomolar range.

B2: HB31 Fab (Fab, V domains shown)
VH: EVQLLESGGGLVQPGGSLRLSCTVSGFTSSNYDMSWVRQAPGKGLEWVSGISGTGRDTYYADSVKGRFTISRDNSKNTLSLQMNSLRADDTAVYFCARDRPVLRYFDWQPYGLDVWGKGTTVTVSS
VL: QSALTQPPSASGSPGQSVTISCTGTSSDVGGYNYVSWYQQYPSKAPKLMIYEVSKRPSGVPDRFSGSKSGNTASLTVSGLQAEDEADYYCNSYAGSNLYVFGTGTKVTVL
Regarding B2, binding was characterised by a dissociation constant (Kd) of 4.5 nM.
